The Immune Epitope Database (IEDB)

Assays:
Experiment in all cases: IEDB peptide-MHC binding, purified MHC/competitive/radioactivity; filed as Kd, often an IC50 or EC50 that approximates it; ≥ and ≤ were set here for values at or beyond the usual limits of such assays
[1] = molecular target: HLA-A*02:02; settings: source organism: Plasmodium falciparum
[2] = molecular target: HLA-A*31:01
[3] = molecular target: HLA-A*11:01
[4] = molecular target: HLA-A*03:01
[5] = molecular target: HLA-A*33:01
[6] = molecular target: HLA-A*68:01
[7] = molecular target: HLA-B*51:01; settings: source organism: Plasmodium falciparum 3D7
[8] = molecular target: HLA-B*54:01; settings: source organism: Plasmodium falciparum 3D7
[9] = molecular target: HLA-B*53:01; settings: source organism: Plasmodium falciparum 3D7
[10] = molecular target: HLA-A*02:01
[11] = molecular target: HLA-B*35:01; settings: source organism: Plasmodium falciparum 3D7
[12] = molecular target: HLA-B*07:02; settings: source organism: Plasmodium falciparum 3D7
[13] = molecular target: HLA-A*68:02; settings: source organism: Plasmodium falciparum
[14] = molecular target: HLA-A*02:06; settings: source organism: Plasmodium falciparum
[15] = molecular target: HLA-A*02:03; settings: source organism: Plasmodium falciparum
[16] = source organism: Plasmodium falciparum
[17] = source organism: Plasmodium falciparum 3D7

Row | Sequence | Kd [2, 16] [nM] | Kd [3, 16] [nM] | Kd [4, 16] [nM] | Kd [5, 16] [nM] | Kd [6, 16] [nM] | also measured
1 | VLLGGVGLVL | – | – | – | – | – | Kd [1]: ≥ 10000 nM
2 | GTGSGVSSKK | ≥ 10000 | 353 | 1100 | ≥ 10000 | ≥ 10000 | –
3 | VLSHNSYEK | ≥ 10000 | 19 | 79 | ≥ 10000 | 2860 | –
4 | KSLYDEHIK | ≥ 10000 | 231 | ≥ 10000 | ≥ 10000 | ≥ 10000 | –
5 | SLLSTNLPY | – | – | – | – | – | Kd [2, 17]: ≥ 10000 nM; Kd [3, 17]: 353 nM; Kd [4, 17]: 1150 nM; Kd [5, 17]: ≥ 10000 nM; Kd [6, 17]: ≥ 10000 nM
6 | LLACAGLAY | – | – | – | – | – | Kd [2, 17]: ≥ 10000 nM; Kd [5, 17]: 6590 nM; Kd [6, 17]: 2500 nM
7 | TPYAGEPAPF | – | – | – | – | – | Kd [7]: 15 nM; Kd [8]: ≥ 10000 nM; Kd [9]: 158 nM
8 | HVLSHNSYEK | ≥ 10000 | 200 | 407 | ≥ 10000 | – | –
9 | GVSENIFLK | 2250 | 5 | 151 | 8290 | 10 | –
10 | GTGSGVSSK | ≥ 10000 | 40 | 126 | ≥ 10000 | 3480 | –
11 | VLYNTEKGR | 8570 | 3160 | 282 | – | 1230 | –
12 | FILVNLLIFH | 1960 | 1330 | 733 | 397 | – | –
13 | FLIFFDLFLV | – | – | – | – | – | Kd [10, 17]: 12 nM
14 | ALLACAGLAY | – | – | – | – | – | Kd [2, 17]: 5460 nM; Kd [4, 17]: 355 nM; Kd [5, 17]: 5090 nM; Kd [6, 17]: ≥ 10000 nM
15 | IIRLHSDASK | – | – | – | – | – | Kd [2, 17]: ≥ 10000 nM; Kd [3, 17]: ≥ 10000 nM; Kd [4, 17]: 324 nM; Kd [5, 17]: ≥ 10000 nM; Kd [6, 17]: ≥ 10000 nM
16 | RLHSDASKNK | – | – | – | – | – | Kd [2, 17]: ≥ 10000 nM; Kd [3, 17]: 600 nM; Kd [4, 17]: 256 nM; Kd [5, 17]: ≥ 10000 nM; Kd [6, 17]: ≥ 10000 nM
17 | FLKENKLNK | ≥ 10000 | 3750 | 145 | 2640 | 444 | –
18 | HPSDGKCNL | – | – | – | – | – | Kd [7]: ≥ 10000 nM; Kd [8]: ≥ 10000 nM; Kd [11]: ≥ 10000 nM; Kd [12]: 275 nM; Kd [9]: 3320 nM
19 | RINEEKHEK | 486 | 40 | 786 | ≥ 10000 | ≥ 10000 | –
20 | VTCGNGIQVR | 15 | 11 | 6880 | – | 444 | –
21 | KSLYDEHIKK | ≥ 10000 | 29 | 1000 | ≥ 10000 | ≥ 10000 | –
22 | SLYDEHIKK | ≥ 10000 | 8.6 | 28 | ≥ 10000 | 615 | –
23 | ILSVSSFLFV | – | – | – | – | – | Kd [13]: 2100 nM; Kd [14]: 587 nM; Kd [1]: 3580 nM; Kd [15]: 19 nM
24 | GLIMVLSFL | – | – | – | – | – | Kd [10, 16]: 22 nM
25 | KILSVFFLA | 7830 | 3.2 | 18 | 5920 | 8890 | Kd [14]: 8 nM
